The values below come from patent publication US20240117018A1.

Assay in all cases: cell-based or functional assay
The target of assay [1] is MuLV envelope (negative control pseudovirus).
Assay [2] addresses Env of HIV-1 pseudovirus 3365.v2.c2 (HIV-1).
The target of assay [3] is HIV-1 Env pseudovirus 263-8 (HIV-1).
The target in assay [4] is HIV-1 Env pseudovirus 3415.v1.c1 (HIV-1).
The target of assay [5] is MuLV envelope (negative control pseudovirus) (MuLV).
Assay [6] has as its target HIV-1 Env pseudovirus CNE8 (HIV-1).
In assay [7] the target is 0260.v5.c36 Env pseudovirus (HIV-1).
The target of assay [8] is 1006_11_C3_1601 Env pseudovirus (HIV-1).
Assay [9] concerns the target 1012_11_TC21_3257 Env pseudovirus (HIV-1).
For assay [10], the target named is 1056_10_TA11_1826 Env pseudovirus (HIV-1).
The target of assay [11] is 1394C9G1(Rev-) Env pseudovirus (HIV-1).
For assay [12], the target named is 191955_A11 Env pseudovirus (HIV-1).
Assay [13] concerns the target 246F C1G Env pseudovirus (HIV-1).
The target of assay [14] is 263-8 Env pseudovirus (HIV-1).
The target in assay [15] is 6535.3 Env pseudovirus (HIV-1).
Assay [16] deals with 7030102001E5(Rev-) Env pseudovirus (HIV-1).
Assay [17] has as its target AC10.0.29 Env pseudovirus (HIV-1).
The target of assay [18] is BF1266.431a Env pseudovirus (HIV-1).
Assay [19] has as its target CNE17 Env pseudovirus (HIV-1).
The target of assay [20] is CNE19 Env pseudovirus (HIV-1).
The target in assay [21] is CNE21 Env pseudovirus (HIV-1).
In assay [22] the target is CNE30 Env pseudovirus (HIV-1).
The target in assay [23] is CNE53 Env pseudovirus (HIV-1).
Assay [24] concerns the target CNE58 Env pseudovirus (HIV-1).
Assay [25] has as its target Ce0393_C3 Env pseudovirus (HIV-1).
Assay [26] concerns the target Ce0682_E4 Env pseudovirus (HIV-1).
Assay [27] deals with Ce1086_B2 Env pseudovirus (HIV-1).
Assay [28] addresses Ce1172_H1 Env pseudovirus (HIV-1).
Assay [29] addresses Ce1176_A3 Env pseudovirus (HIV-1).
Assay [30] has as its target Ce2010_F5 Env pseudovirus (HIV-1).
The target of assay [31] is Ce704809221_1B3 Env pseudovirus (HIV-1).
The target in assay [32] is Du422.1 Env pseudovirus (HIV-1).
The target in assay [33] is HIV-16845-2.22 Env pseudovirus (HIV-1).
Assay [34] addresses MS208.A1 Env pseudovirus (HIV-1).
Assay [35] concerns the target Q23.17 Env pseudovirus (HIV-1).
The target in assay [36] is Q769.d22 Env pseudovirus (HIV-1).
Assay [37] addresses QH0692.42 Env pseudovirus (HIV-1).
In assay [38] the target is SC05_8C11_2344 Env pseudovirus (HIV-1).
The target of assay [39] is SC422661.8 Env pseudovirus (HIV-1).
Assay [40] has as its target THRO4156.18 Env pseudovirus (HIV-1).
The target of assay [41] is TRO.11 Env pseudovirus (HIV-1).
Assay [42] deals with WITO4160.33 Env pseudovirus (HIV-1).
Assay [43] addresses ZM214M.PL15 Env pseudovirus (HIV-1).
Assay [44] deals with ZM233M.PB6 Env pseudovirus (HIV-1).

On to N49P9 (antibody), for which, in [1], the neutralization IC50 was > 50 mg/L, the neutralization IC80 is > 50 mg/L and the neutralization MPI worked out at 13.
In assay [2], 10-1074 (antibody) returned an IC50 of 0.131 mg/L and an IC80 of 0.45 mg/L.
In [3], VRC01 (antibody) yielded an IC50 (Titer in TZM.bl cells) of 0.2 mg/L and an IC80 (Titer in TZM.bl cells) of 0.55 mg/L. In assay [4], this substance returned an IC50 (Titer in TZM.bl cells) of 0.06 mg/L and an IC80 (Titer in TZM.bl cells) of 0.15 mg/L.
On to N49P7.1 (antibody), for which, in [5], the IC50 (neutralisation, TZM.bl cells) was > 50 mg/L; the IC80 (neutralisation, TZM.bl cells) is > 50 mg/L; the MPI is 4.
For the substance N49P19 (antibody), in assay [1], the neutralization IC50 is > 50 mg/L, the neutralization IC80 is > 50 mg/L and the neutralization MPI is 0.
On to VRC07 (antibody), for which, in [6], the IC50 (Titer in TZM.bl cells) amounted to 0.45 mg/L and the IC80 (Titer in TZM.bl cells) is 1.56 mg/L.
As for N49P7 (antibody), in [5], the IC50 (neutralisation, TZM.bl cells) was > 50 mg/L; the IC80 (neutralisation, TZM.bl cells) was > 50 mg/L; the MPI is 9.
PGT121 (antibody): the IC50 in assay [7] was 0.053 mg/L; in assay [8], 0.002 mg/L; in [9], 0.003 mg/L; in assay [10], 0.004 mg/L; in [11] it was 0.264 mg/L; in assay [12] it was > 50 mg/L. For the same substance, the IC50 in assay [13] is 0.041 mg/L; in [14] it was 0.648 mg/L; in [15], 0.002 mg/L; in [16], 0.009 mg/L; in assay [17], 0.024 mg/L; in [18], > 50 mg/L. For the same substance, the IC50 is 7.6 mg/L in assay [19]; 0.008 mg/L in assay [20]; 0.007 mg/L in assay [21]; 0.078 mg/L in assay [22]; 0.007 mg/L in [23]; > 50 mg/L in [24]. Moreover, the IC50 in [25] is > 50 mg/L; in assay [26] it was > 50 mg/L; in [27], < 0.001 mg/L; in [29] it was 0.013 mg/L; in assay [30] it was > 50 mg/L; in [31], 0.025 mg/L. For the same substance, the IC50 in assay [32] is 0.039 mg/L; in assay [33], 3.97 mg/L; in assay [34], > 50 mg/L; in [35], < 0.001 mg/L; in [36], > 50 mg/L; in [37], 0.302 mg/L. Besides, the IC50 in assay [38] is 0.019 mg/L; in assay [39] it was 0.038 mg/L; in [40] it was > 50 mg/L; in [41], 0.005 mg/L; in assay [42], 0.334 mg/L; in assay [43], 0.46 mg/L. Further, in assay [44], the IC50 was 3.69 mg/L. Besides, the IC80 in assay [7] is 0.197 mg/L; in assay [8], 0.007 mg/L; in assay [9] it was 0.017 mg/L; in [10], 0.081 mg/L; in assay [11], 1.95 mg/L; in assay [12], > 50 mg/L. In addition, the IC80 in assay [13] was 0.14 mg/L; in [14] it was 3.96 mg/L; in [15], 0.008 mg/L; in assay [16], 0.027 mg/L; in assay [17], 0.073 mg/L; in assay [18], > 50 mg/L. The IC80 in assay [19] was > 50 mg/L; in assay [20] it was 0.105 mg/L; in assay [21], 0.035 mg/L; in assay [22], 0.291 mg/L; in assay [23], 0.024 mg/L; in assay [24] it was > 50 mg/L. The IC80 is > 50 mg/L in assay [25]; > 50 mg/L in assay [26]; < 0.001 mg/L in [27]; 0.036 mg/L in assay [28]; 0.035 mg/L in assay [29]; > 50 mg/L in [30]. The IC80 in [31] was 0.126 mg/L; in assay [32] it was 0.143 mg/L; in assay [33], 44.6 mg/L; in [34], > 50 mg/L; in [35] it was 0.005 mg/L; in [36] it was > 50 mg/L. Moreover, the IC80 in assay [37] is 2.31 mg/L; in assay [38], 0.071 mg/L; in assay [39], 0.177 mg/L; in assay [40] it was > 50 mg/L; in [41], 0.025 mg/L; in assay [42], 2.35 mg/L. Further, in [43], the IC80 is 2.04 mg/L.
